Results taken from patent US20200231671A1 (E R SQUIBB AND SONS L L C, published 2020).

T1: human LAG-3 full-length extra loop peptide (human, conjugated to biotin)
T1 construct: Exposed extra loop of the immunoglobulin-like first extracellular domain of LAG-3; also called LAG-3 extra loop
T1 peptide: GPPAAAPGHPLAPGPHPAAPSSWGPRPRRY

T2: mouse LAG-3 (cell surface, 3A9 mouse T cell hybridoma) (mouse, UniProt Q61790 24-521)
T2 construct: whole, on cells; also called mLAG-3
T2 sequence (looked up): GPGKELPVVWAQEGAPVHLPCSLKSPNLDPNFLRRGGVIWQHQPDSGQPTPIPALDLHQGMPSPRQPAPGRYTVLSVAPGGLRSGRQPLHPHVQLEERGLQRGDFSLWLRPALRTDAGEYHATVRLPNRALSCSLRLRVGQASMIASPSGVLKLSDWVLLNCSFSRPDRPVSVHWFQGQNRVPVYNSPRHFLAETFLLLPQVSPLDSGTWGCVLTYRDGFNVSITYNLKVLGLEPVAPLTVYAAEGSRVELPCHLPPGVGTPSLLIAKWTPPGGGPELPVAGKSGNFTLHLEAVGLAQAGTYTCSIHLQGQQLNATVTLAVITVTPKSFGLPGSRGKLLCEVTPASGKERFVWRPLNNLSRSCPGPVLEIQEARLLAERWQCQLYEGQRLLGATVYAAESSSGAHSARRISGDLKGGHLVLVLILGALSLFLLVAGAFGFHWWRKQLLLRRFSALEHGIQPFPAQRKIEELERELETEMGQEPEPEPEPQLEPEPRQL

T3: human LAG-3 (cell surface) (human, UniProt P18627 23-525)
T3 construct: whole, on cells; also called CHO-human LAG-3
T3 sequence (looked up): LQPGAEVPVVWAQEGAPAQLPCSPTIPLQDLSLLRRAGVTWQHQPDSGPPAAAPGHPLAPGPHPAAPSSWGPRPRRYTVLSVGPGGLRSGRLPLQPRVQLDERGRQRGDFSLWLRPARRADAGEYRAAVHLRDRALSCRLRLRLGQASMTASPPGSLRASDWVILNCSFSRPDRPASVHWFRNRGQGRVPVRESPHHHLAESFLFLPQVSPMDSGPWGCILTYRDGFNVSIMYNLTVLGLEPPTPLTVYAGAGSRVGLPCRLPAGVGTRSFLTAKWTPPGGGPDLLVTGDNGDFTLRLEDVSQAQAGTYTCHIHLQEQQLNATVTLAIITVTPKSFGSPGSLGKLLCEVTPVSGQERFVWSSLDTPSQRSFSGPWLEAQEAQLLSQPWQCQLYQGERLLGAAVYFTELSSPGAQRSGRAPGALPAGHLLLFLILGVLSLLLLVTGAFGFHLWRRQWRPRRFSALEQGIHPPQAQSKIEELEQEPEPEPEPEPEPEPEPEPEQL

T4: rhesus monkey LAG-3 full length extra loop peptide (rhesus monkey)
T4 construct: Used in a 'similar peptide ELISA'; Biotinylation is not restated for this peptide; also called Rhesus Extra Loop
T4 peptide: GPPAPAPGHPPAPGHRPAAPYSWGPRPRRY


How the values were obtained:
[1] = biological target: T1, human LAG-3 full-length extra loop …; assay: ELISA on human full-length extra loop peptide
Method: (§1) To further examine binding of these antibodies to the extra loop peptide region, additional ELISA assays were performed. In an ELISA assay using the human full-length extra loop peptide (SEQ ID NO: 79), EC₅₀ values for binding were determined for 25E3, 25F7 and 8B7. Additionally, a similar peptide ELISA was conducted using the full length extra loop peptide sequence from rhesus monkey LAG-3, having the sequence […] (SEQ ID NO: 90), and EC₅₀ values for binding were determined for 25F7 and 8B7. […] Moreover, antibodies 25F7 and 8B7 also bind to the rhesus LAG-3 extra loop peptide region, albeit less well compared to the human sequence, which may be due to the species sequence divergence in this polypeptide. The results also confirm that the 26H10 antibody is not capable of recognizing the LAG-3 extra loop peptide.

[2] = biological target: T2, mouse LAG-3 (cell surface, 3A9 mouse T …); assay: flow cytometry, 3A9 cells transfected with mouse LAG-3
Method: To determine whether the antibodies cross-reacted with mouse LAG-3, similar flow cytometry studies to those described above were performed using as the target cell a mouse T cell hybridoma cell line (3A9) that had been transfected to express mouse LAG-3 on its cell surface, followed by FACS analysis to detect antibody binding.

[3] = biological target: T3, human LAG-3 (cell surface); assay: flow cytometry, activated human CD4+ T cells
Method: To test the ability of the antibodies to bind to cell surface LAG-3 protein, the antibodies were incubated with a CHO cell line that had been transfected to express human LAG-3 on the cell surface. The 25F7, 26H10, 25E3, 8B7, 11F2 and 17E5 monoclonal antibodies were serially diluted with cold lx PFAE buffer (1×PBS+2% FBS, 0.02% sodium azide, 2 mM Na EDTA). For the binding reaction, 50 μl of diluted antibody solution was added to a 50 μl cell suspension containing 2×10⁵ cells and the mixture was incubated on ice for 30 minutes. The cells were then washed two times with 1×PFAE buffer. A 1:100 dilution of FITC-labeled goat anti-human kappa light chain antibody (Bethyl Laboratories, Inc., Cat. # A80-115F) was added and the mixture was incubated for 30 minutes at 4° C., followed by washing twice with cold 1×PFAE buffer. After the final wash, 150 μl of cold 1×PFAE containing 10 μg/mL propidium iodide (Roche Applied Science, Cat #1 348 639) was added to each solution and analysis of antibody binding was carried out by flow cytometry using a FACScalibur flow cytometer (BD Bioscience).
(§2) To test the ability of the antibodies to bind to native human LAG-3 on the surface of activated human T cells, resting CD4⁺ T cells were isolated from purified peripheral blood mononuclear cells and subjected to three days of stimulation with a combination of anti-CD3 and anti-CD28 antibodies affixed to polystyrene beads. The 25F7, 8B7 and 26H10 monoclonal antibodies were serially diluted with cold 1×PFAE buffer (1×PBS+2% FBS, 0.02% sodium azide, 2 mM Na EDTA). For the binding reaction, 50 μl of diluted antibody solution was mixed with 50 μl of PE-labeled anti-human CD4 (BD Bioscience, Cat # 555347). Activated T cells were processed by the same protocol described above. The analysis of antibody binding was conducted as described above.

[4] = biological target: T4, rhesus monkey LAG-3 full length extra …; assay: ELISA on rhesus full length extra loop peptide
Method: as §1

[5] = biological target: T5, cynomolgus monkey LAG-3 on activated cynomolgus monkey T cells (cynomolgus monkey); assay: flow cytometry, activated cynomolgus CD4+ T cells
T5 construct: whole, on cells
Method: as §2
In a separate experiment, the antibodies were tested for binding to cynomolgus monkey LAG-3 using activated cynomolgus monkey T cells. In vitro activation of these monkey T cells was achieved through anti-CD³/anti-CD28 treatment of the T cells by essentially the same protocol described above for the in vitro activation of human T cells, followed by flow cytometry analysis performed as described above for staining of in vitro activated human CD4⁺ T cells.

Row | EC50 [1] [nM] | binding result [2] | EC50 [3] [nM] | EC50 [4] [nM] | EC50 [5] [nM] | binding result [1] | binding result [4] | Binder
1 | 0.55 | no binding | – | – | – | – | – | 25E3 human monoclonal antibody (antibody, IgG1, V domains shown) VH: EVQLVESGGGVVRPGGSLRLSCAASGFTFDDYGMSWVRQAPGKGLEWVSGINWNGGSTYYADSVKGRFTISGDNAKNSLYLQMNSLRAEDTALYYCTTGGYWGQGTLVTVSS VL: AIQLTQSPSSLSASVGDRVTITCRASQGIRSALAWYQQKPGKAPKLLIYDASSLESGVPSRFSGSGSGTDFTLTISSLQPEDFATYYCQQFNSYPYTFGQGTKLEIK
2 | 0.29 to 0.95 | no binding | 0.27 to 0.45 | 13.1 | 14.2 | – | – | 25F7 human monoclonal antibody (antibody, IgG1, V domains shown, also called 25F7-FITC (IgG1 version)) VH: QVQLQQWGAGLLKPSETLSLTCAVYGGSFSDYYWNWIRQPPGKGLEWIGEINHNGNTNSNPSLKSRVTLSLDTSKNQFSLKLRSVTAADTAVYYCAFGYSDYEYNWFDPWGQGTLVTVSS VL: EIVLTQSPATLSLSPGERATLSCRASQSISSYLAWYQQKPGQAPRLLIYDASNRATGIPARFSGSGSGTDFTLTISSLEPEDFAVYYCQQRSNWPLTFGQGTNLEIK
3 | 0.28 to 1.35 | no binding | 0.69 to 1.8 | 0.6 | 30.4 | – | – | 8B7 human monoclonal antibody (antibody, IgG4, V domains shown, also called 8B7-FITC) VH: QVQLQQWGAGLLKPSETLSLTCAVYGGSFSGYYWSWIRQPPGKGLEWIGEINHRGNTNCNPSLKSRVTISGDTSKKQFALKLNSVTAADTAVYYCARGYDILTGYYEDSWGPGTLVTVSS VL: EIVLTQSPATLSLSPGERATLSCRASQSVSSYLAWYQQKPGQAPRLLIYNASNRATGIPARFSGSGSGTDFTLTISSLEPEDFAVYYCQQRSNWPLTFGGGTKVEIK
4 | – | no binding | 0.41 to 0.84 | – | 5.19 | no binding | no binding | 26H10 human monoclonal antibody (antibody, IgG1, V domains shown, also called 26H10-FITC) VH: QVQLVESGGGVVQPGRSLRLSCAASGFTFSSYGMHWVRQAPGKGLEWVAVIWYDGSNKYYADSVKGRFTISRDNSKNTLYLQMNSLRAEDTAVYYCAREWAVASWDYGMDVWGQGTTVTVSS VL: not shown
